Laboratory results published in patent publication US9958461B2, “Detection of protein to protein interactions” (THE GOVERNING COUNCIL OF THE UNIVERSITY OF TORONTO, priority 2013, dated 2018).

B1: CDH5 (protein, UniProt P33151 48-784, looked up)
Cadherin-5: DWIWNQMHIDEEKNTSLPHHVGKIKSSVSRKNAKYLLKGEYVGKVFRVDAETGDVFAIERLDRENISEYHLTAVIVDKDTGENLETPSSFTIKVHDVNDNWPVFTHRLFNASVPESSAVGTSVISVTAVDADDPTVGDHASVMYQILKGKEYFAIDNSGRIITITKSLDREKQARYEIVVEARDAQGLRGDSGTATVLVTLQDINDNFPFFTQTKYTFVVPEDTRVGTSVGSLFVEDPDEPQNRMTKYSILRGDYQDAFTIETNPAHNEGIIKPMKPLDYEYIQQYSFIVEATDPTIDLRYMSPPAGNRAQVIINITDVDEPPIFQQPFYHFQLKENQKKPLIGTVLAMDPDAARHSIGYSIRRTSDKGQFFRVTKKGDIYNEKELDREVYPWYNLTVEAKELDSTGTPTGKESIVQVHIEVLDENDNAPEFAKPYQPKVCENAVHGQLVLQISAIDKDITPRNVKFKFILNTENNFTLTDNHDNTANITVKYGQFDREHTKVHFLPVVISDNGMPSRTGTSTLTVAVCKCNEQGEFTFCEDMAAQVGVSIQAVVAILLCILTITVITLLIFLRRRLRKQARAHGKSVPEIHEQLVTYDEEGGGEMDTTSYDVSVLNSVRRGGAKPPRPALDARPSLYAQVQKPPRHAPGAHGGPGEMAAMIEVKKDEADHDGDGPPYDTLHIYGYEGSESIAESLSSLGTDSSDSDVDYDFLNDWGPRFKMLAELYGSDPREELLY
B2: CAV1 (protein, UniProt Q03135 2-178, looked up)
Caveolin-1: SGGKYVDSEGHLYTVPIREQGNIYKPNNKAMADELSEKQVYDAHTKEIDLVNRDPKHLNDDVVKIDFEDVIAEPEGTHSFDGIWKASFTTFTVTKYWFYRLLSALFGIPMALIWGIYFAILSFLHIWAVVPCIKSFLIEIQCISRVYSIYVHTVCDPLFEAVGKIFSNVRINLQKEI
B3: SNX9 (protein, UniProt Q9Y5X1 1-595, looked up)
Sorting nexin-9: MATKARVMYDFAAEPGNNELTVNEGEIITITNPDVGGGWLEGRNIKGERGLVPTDYVEILPSDGKDQFSCGNSVADQAFLDSLSASTAQASSSAASNNHQVGSGNDPWSAWSASKSGNWESSEGWGAQPEGAGAQRNTNTPNNWDTAFGHPQAYQGPATGDDDDWDEDWDGPKSSSYFKDSESADAGGAQRGNSRASSSSMKIPLNKFPGFAKPGTEQYLLAKQLAKPKEKIPIIVGDYGPMWVYPTSTFDCVVADPRKGSKMYGLKSYIEYQLTPTNTNRSVNHRYKHFDWLYERLLVKFGSAIPIPSLPDKQVTGRFEEEFIKMRMERLQAWMTRMCRHPVISESEVFQQFLNFRDEKEWKTGKRKAERDELAGVMIFSTMEPEAPDLDLVEIEQKCEAVGKFTKAMDDGVKELLTVGQEHWKRCTGPLPKEYQKIGKALQSLATVFSSSGYQGETDLNDAITEAGKTYEEIASLVAEQPKKDLHFLMECNHEYKGFLGCFPDIIGTHKGAIEKVKESDKLVATSKITLQDKQNMVKRVSIMSYALQAEMNHFHSNRIYDYNSVIRLYLEQQVQFYETIAEKLRQALSRFPVM
B4: GRB10 (protein, UniProt Q13322 1-594, looked up)
Growth factor receptor-bound …: MALAGCPDSFLHHPYYQDKVEQTPRSQQDPAGPGLPAQSDRLANHQEDDVDLEALVNDMNASLESLYSACSMQSDTVPLLQNGQHARSQPRASGPPRSIQPQVSPRQRVQRSQPVHILAVRRLQEEDQQFRTSSLPAIPNPFPELCGPGSPPVLTPGSLPPSQAAAKQDVKVFSEDGTSKVVEILADMTARDLCQLLVYKSHCVDDNSWTLVEHHPHLGLERCLEDHELVVQVESTMASESKFLFRKNYAKYEFFKNPMNFFPEQMVTWCQQSNGSQTQLLQNFLNSSSCPEIQGFLHVKELGKKSWKKLYVCLRRSGLYCSTKGTSKEPRHLQLLADLEDSNIFSLIAGRKQYNAPTDHGLCIKPNKVRNETKELRLLCAEDEQTRTCWMTAFRLLKYGMLLYQNYRIPQQRKALLSPFSTPVRSVSENSLVAMDFSGQTGRVIENPAEAQSAALEEGHAWRKRSTRMNILGSQSPLHPSTLSTVIHRTQHWFHGRISREESHRIIKQQGLVDGLFLLRDSQSNPKAFVLTLCHHQKIKNFQILPCEDDGQTFFSLDDGNTKFSDLIQLVDFYQLNKGVLPCKLKHHCIRVAL
B5: PRKCE (protein, UniProt Q02156 1-737, looked up)
Protein kinase C epsilon type: MVVFNGLLKIKICEAVSLKPTAWSLRHAVGPRPQTFLLDPYIALNVDDSRIGQTATKQKTNSPAWHDEFVTDVCNGRKIELAVFHDAPIGYDDFVANCTIQFEELLQNGSRHFEDWIDLEPEGRVYVIIDLSGSSGEAPKDNEERVFRERMRPRKRQGAVRRRVHQVNGHKFMATYLRQPTYCSHCRDFIWGVIGKQGYQCQVCTCVVHKRCHELIITKCAGLKKQETPDQVGSQRFSVNMPHKFGIHNYKVPTFCDHCGSLLWGLLRQGLQCKVCKMNVHRRCETNVAPNCGVDARGIAKVLADLGVTPDKITNSGQRRKKLIAGAESPQPASGSSPSEEDRSKSAPTSPCDQEIKELENNIRKALSFDNRGEEHRAASSPDGQLMSPGENGEVRQGQAKRLGLDEFNFIKVLGKGSFGKVMLAELKGKDEVYAVKVLKKDVILQDDDVDCTMTEKRILALARKHPYLTQLYCCFQTKDRLFFVMEYVNGGDLMFQIQRSRKFDEPRSRFYAAEVTSALMFLHQHGVIYRDLKLDNILLDAEGHCKLADFGMCKEGILNGVTTTTFCGTPDYIAPEILQELEYGPSVDWWALGVLMYEMMAGQPPFEADNEDDLFESILHDDVLYPVWLSKEAVSILKAFMTKNPHKRLGCVASQNGEDAIKQHPFFKEIDWVLLEQKKIKPPFKPRIKTKRDVNNFDQDFTREEPVLTLVDEAIVKQINQEEFKGFSYFGEDLMP
B6: MAPK8IP2 (protein, UniProt Q13387 1-824, looked up)
C-Jun-amino-terminal …: MADRAEMFSLSTFHSLSPPGCRPPQDISLEEFDDEDLSEITDDCGLGLSYDSDHCEKDSLSLGRSEQPHPICSFQDDFQEFEMIDDNEEEDDEDEEEEEEEEEGDGEGQEGGDPGSEAPAPGPLIPSPSVEEPHKHRPTTLRLTTLGAQDSLNNNGGFDLVRPASWQETALCSPAPEALRELPGPLPATDTGPGGAQSPVRPGCDCEGNRPAEPPAPGGTSPSSDPGIEADLRSRSSGGRGGRRSSQELSSPGSDSEDAGGARLGRMISSISETELELSSDGGSSSSGRSSHLTNSIEEASSPASEPEPPREPPRRPAFLPVGPDDTNSEYESGSESEPDLSEDADSPWLLSNLVSRMISEGSSPIRCPGQCLSPAPRPPGEPVSPAGGAAQDSQDPEAAAGPGGVELVDMETLCAPPPPAPAAPRPGPAQPGPCLFLSNPTRDTITPLWAAPGRAARPGRACSAACSEEEDEEDDEEEEDAEDSAGSPGGRGTGPSAPRDASLVYDAVKYTLVVDEHTQLELVSLRRCAGLGHDSEEDSGGEASEEEAGAALLGGGQVSGDTSPDSPDLTFSKKFLNVFVNSTSRSSSTESFGLFSCLVNGEEREQTHRAVFRFIPRHPDELELDVDDPVLVEAEEDDFWFRGFNMRTGERGVFPAFYAHAVPGPAKDLLGSKRSPCWVERFDVQFLGSVEVPCHQGNGILCAAMQKIATARKLTVHLRPPASCDLEISLRGVKLSLSGGGPEFQRCSHFFQMKNISFCGCHPRNSCYFGFITKHPLLSRFACHVFVSQESMRPVAQSVGRAFLEYYQEHLAYACPTEDIYLE
B7: PTPN2 (protein, UniProt P17706 1-415, looked up)
Tyrosine-protein phosphatase …: MPTTIEREFEELDTQRRWQPLYLEIRNESHDYPHRVAKFPENRNRNRYRDVSPYDHSRVKLQNAENDYINASLVDIEEAQRSYILTQGPLPNTCCHFWLMVWQQKTKAVVMLNRIVEKESVKCAQYWPTDDQEMLFKETGFSVKLLSEDVKSYYTVHLLQLENINSGETRTISHFHYTTWPDFGVPESPASFLNFLFKVRESGSLNPDHGPAVIHCSAGIGRSGTFSLVDTCLVLMEKGDDINIKQVLLNMRKYRMGLIQTPDQLRFSYMAIIEGAKCIKGDSSIQKRWKELSKEDLSPAFDHSPNKIMTEKYNGNRIGLEEEKLTGDRCTGLSSKMQDTMEENSESALRKRIREDRKATTAQKVQQMKQRLNENERKRKRWLYWQPILTKMGFMSVILVGAFVGWTLFFQQNAL
B8: SOCS6 (protein, UniProt O14544 1-535, looked up)
Suppressor of cytokine …: MKKISLKTLRKSFNLNKSKEETDFMVVQQPSLASDFGKDDSLFGSCYGKDMASCDINGEDEKGGKNRSKSESLMGTLKRRLSAKQKSKGKAGTPSGSSADEDTFSSSSAPIVFKDVRAQRPIRSTSLRSHHYSPAPWPLRPTNSEETCIKMEVRVKALVHSSSPSPALNGVRKDFHDLQSETTCQEQANSLKSSASHNGDLHLHLDEHVPVVIGLMPQDYIQYTVPLDEGMYPLEGSRSYCLDSSSPMEVSAVPPQVGGRAFPEDESQVDQDLVVAPEIFVDQSVNGLLIGTTGVMLQSPRAGHDDVPPLSPLLPPMQNNQIQRNFSGLTGTEAHVAESMRCHLNFDPNSAPGVARVYDSVQSSGPMVVTSLTEELKKLAKQGWYWGPITRWEAEGKLANVPDGSFLVRDSSDDRYLLSLSFRSHGKTLHTRIEHSNGRFSFYEQPDVEGHTSIVDLIEHSIRDSENGAFCYSRSRLPGSATYPVRLTNPVSRFMQVRSLQYLCRFVIRQYTRIDLIQKLPLPNKMKDYLQEKHY

What follows are molecules tested on EGFR-Wt (assay: MaMTH EGFR-interactor screen, lentiviral preys against EGFR-wildtype bait (interaction score)). Conditions: ratio of EGFR-Wt mean to EGFR-L858R mean interaction score.
Type: cell-based, human
Method in brief: (§1)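 Interaction score is the luciferase fold-change versus averaged negative controls (Fabp5, Pex19, Pex7, GABBR2), with >1 called interacting. Luciferase was measured 24 h after triplicate bait transfection. This followed single-copy prey transduction (MOI ~0.3-0.4) of GAL4UAS-luciferase HEK293T cells and ≥48 h puromycin selection.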

Compared with B1, B2 is higher in Wt/L858R: 0.84 for the first, 0.87 for the second.

First: B3
Second: B4
The Wt/L858R of the first is lower: 0.88 for the first, 0.90 for the second.

B5 and B6 are the same in Wt/L858R: 0.93 for the first, 0.93 for the second.

First: B7
Second: B8
The Wt/L858R of the first is higher: 0.93 for the first, 0.21 for the second.

The molecules below were run against T1, EGFR-Wt (Homo sapiens, UniProt P00533) in the same assay as above. Conditions: MaMTH interaction score of prey with EGFR-Wt bait, mean.
T1 construct: with the advantage of testing full-length integral membrane proteins; (GGGGS)2 linker-Cub (human ubiquitin aa 35-76)-GAL4(1-147)-mNFkB(364-550) (C); expressed in transfected cells
Type: cell-based
Method in brief: as §1

Going from B1 to B2, the EGFR-Wt mean falls from 2.22 to 1.86.

First: B3
Second: B4
The EGFR-Wt mean of the first is lower: 1.67 for the first, 3.14 for the second.

First: B5
Second: B6
The EGFR-Wt mean of the first is higher: 6.30 for the first, 1.52 for the second.

Going from B7 to B8, the EGFR-Wt mean falls from 1.27 to 1.22.

What follows are molecules tested against T2, EGFR-L858R (Homo sapiens, UniProt P00533, L858R) (assay: MaMTH EGFR-interactor screen, lentiviral preys against EGFR-L858R bait (interaction score)). Conditions: MaMTH interaction score of prey with EGFR-L858R bait.
T2 construct: with the advantage of testing full-length integral membrane proteins; (GGGGS)2 linker-Cub (human ubiquitin aa 35-76)-GAL4(1-147)-mNFkB(364-550) (C); expressed in transfected cells
Type: cell-based
Method in brief: as §1

Going from B1 to B2, the EGFR-L858R mean falls from 2.63 to 2.14.

Going from B3 to B4, the EGFR-L858R mean rises from 1.89 to 3.49.

Going from B5 to B6, the EGFR-L858R mean falls from 6.77 to 1.63.

First: B7
Second: B8
The EGFR-L858R mean of the first is lower: 1.36 for the first, 5.90 for the second.
